Test results taken from patent US20210301025A1 (published 2021).
Residue numbers refer to the chain shown, from its start.

B1: P53A1R5-17 (designed binder, not shown: small tags and cut ends)
chain: LPAPKNLVVSEVTEDSLRLSWADPHGFYDSFLIQYQESEKVGEAINLTVPGSERSYDLTGLKPGTEYTVSIYGVHNVYKDTNMRGLPLSAEFTT
B2: P54AR4-17 (designed binder, not shown: small tags and cut ends)
chain: B1 chain with A22T, D23Y, P24D, H25R, G26D, F27G
B3: P54AR4-73 (designed binder, not shown: small tags and cut ends)
chain: B1 chain with A22T, D23W, H25Y, G26A, F27D, Y28L
notes: also called P54AR4-37
B4: P54AR4-74 (designed binder, not shown: small tags and cut ends)
chain: B1 chain with A22G, D23Y, P24N, H25G, G26D, F27H, Y28F
B5: P54AR4-83 (designed binder, not shown: small tags and cut ends)
chain: B1 chain with A22D, H25W, G26A, D29E
B6: P54CR4-31 (designed binder, not shown: small tags and cut ends)
chain: LPAPKNLVVSEVTEDSLRLSWTAPDAAFDSFLIQYQESEKVGEAINLTVPGSERSYDLTGLKPGTEYTVSIYGVLGSYVFEHDVMLPLSAEFTT
B7: P54AR4-48 (designed binder, not shown: small tags and cut ends)
chain: B1 chain with A22D, H25R, D29E
B8: ECB95 (designed binder, not shown: small tags and cut ends)
chain: MLPAPKNLVVSEVTEDSARLSWDDPWAFYESFLIQYQESEKVGEAIVLTVPGSERSYDLTGLKPGTEYTVSIYGVHNVYKDTNIRGLPLSAIFTTAPAPAPAPAPLPAPKNLVVSRVTEDSARLSWTAPDAAFDSFWIRYFEFVGSGEAIVLTVPGSERSYDLTGLKPGTEYVVNILGVKGGSISPPLSAIFTT
notes: Bispecific: P54AR4-83v22, (AP)5, P114AR9P121-A6v2
B9: ECB15 (designed binder, not shown: small tags and cut ends)
chain: B8 chain with I84M, V144L, L177M, S183K
B10: ECB94 (designed binder, not shown: small tags and cut ends)
chain: B8 chain with V144L, S183K
notes: Bispecific: P54AR4-83v22, (AP)5, P114AR7P94-A3v22
B11: ECB96 (designed binder, not shown: small tags and cut ends)
chain: B8 chain with G145S, S146K, E148D
notes: Bispecific: P54AR4-83v22, (AP)5, P114AR9P122-A7v2
B12: ECB97 (designed binder, not shown: small tags and cut ends)
chain: B8 chain with V144L, G178S
notes: Bispecific: P54AR4-83v22, (AP)5, P114AR7P95-C5v2
B13: ECB106 (designed binder, not shown: small tags and cut ends)
chain: B8 chain with W26H, V144L, S183K
notes: Bispecific: P54AR4-83v23, (AP)5, P114AR7P94-A3v22
B14: ECB107 (designed binder, not shown: small tags and cut ends)
chain: B8 chain with W26H
notes: Bispecific: P54AR4-83v23, (AP)5, P114AR9P121-A6v2
B15: ECB108 (designed binder, not shown: small tags and cut ends)
chain: B8 chain with W26H, G145S, S146K, E148D
notes: Bispecific: P54AR4-83v23, (AP)5, P114AR9P122-A7v2
B16: ECB109 (designed binder, not shown: small tags and cut ends)
chain: B8 chain with W26H, V144L, G178S
notes: Bispecific: P54AR4-83v23, (AP)5, P114AR7P95-C5v2
B17: ECB147v3-PEG24 (designed binder)
chain: MLPAPKNLVVSEVTEDSARLSWDDPWAFYESFLIQYQESEKVGEAIVLTVPGSERSYDLTGLCPGTEYTVSIYGVHNVYKDTNMRGLPLSAIFTTAPCPAPAPAPLPAPKNLVVSRVTEDSARLSWTAPDAAFDSFWIRYFEFLGSGEAIVLTVPGSERSYDLTGLCPGTEYVVNIMSVKGGSISPPLSAIFTTAPCPAPAPAPLAEAKVLANRELDKYGVSDYYKNLINNAKTVEGVKALLDEILAALP
modifications: PEG24-maleimide on the engineered cysteines
B18: ECB147v5-PEG24 (designed binder)
chain: B17 chain with C98A, C197A
modifications: PEG24-maleimide on the engineered cysteines
B19: ECB147v6-PEG24 (designed binder)
chain: B17 chain with C98A, C167K, C197A
modifications: PEG24-maleimide on the engineered cysteine
B20: P54AR4-81 (designed binder, not shown: small tags and cut ends)
chain: LPAPKNLVVSEVTEDSLRLSWDYDLGVYFDSFLIQYQESEKVGEAINLTVPGSERSYDLTGLKPGTEYTVSIYGVHNVYKDTNMRGLPLSAEFTT

Tests used:
[1] = molecular target: T1, human EGFR on cells (A431, NCI-H292, NCI-H322, NCI-H441) (human, UniProt P00533 25-1210); test: cell-based or functional assay
[2] = molecular target: T2, recombinant human extracellular domain of EGFR fused to an IgG1 Fc (human, UniProt P00533 25-645); test: SPR (ProteOn), EGFR-Fc captured on anti-human Fc IgG
T2 construct: Bought (R&D Systems); captured on anti-human Fc IgG for SPR; also called EGFR-Fc
Experimental: Select EGFR-binding FN3 domains were screened to identify those with slow off-rates (koff) in binding to EGFR-Fc on a ProteOn XPR-36 instrument (Bio-Rad) to facilitate selection of high affinity binders. Goat anti-human Fc IgG (R&D systems), at a concentration of 5 μg/mL, was directly immobilized via amine coupling (at pH 5.0) on all 6 ligand channels in horizontal orientation on the chip with a flow rate of 30 μL/min in PBS containing 0.005% Tween-20. The immobilization densities averaged about 1500 Response Units (RU) with less than 5% variation among different channels. EGFR-Fc was captured on the anti-human Fc IgG surface to a density around 600 RU in vertical ligand orientation. All tested FN3 domains were normalized to a concentration of 1 μM and tested for their binding in horizontal orientation. All 6 analyte channels were used for the FN3 domains to maximize screening throughput. The dissociation phase was monitored for 10 minutes at a flow rate of 100 μL/min. The inter-spot binding signals were used as references to monitor non-specific binding between analytes and the immobilized IgG surface, and were subtracted from all binding responses. The processed binding data were locally fit to a 1:1 simple Langmuir binding model to extract the koff for each FN3 domain binding to captured EGFR-Fc.
Binding affinity of selected EGFR-binding FN3 domains to recombinant EGFR extracellular domain was further characterized by surface Plasmon resonance methods using a Proteon Instrument (BioRad). The assay set-up (chip preparation, EGFR-Fc capture) was similar to that described above for off-rate analysis. Selected EGFR binding FN3 domains were tested at 1 μM concentration in 3-fold dilution series in the horizontal orientation. A buffer sample was also injected to monitor the baseline stability.

[3] = molecular target: T1, human EGFR on cells (A431, NCI-H292, …); test: A431 cell binding, anti-His-Alexa488 fluorescence
Experimental: A431 cells were plated at 5,000/well in opaque black 96-well plates and allowed to attach overnight at 37° C., in a humidified 5% CO₂ atmosphere. […] Supernatant was removed and cells were washed 3 times with 150 μL/well of FACS stain buffer. Cells were incubated with 50 μL/well of anti-penta His-Alexa488 antibody conjugate (Qiagen) diluted 1:100 in FACS stain buffer for 20 minutes at room temperature. Cells were washed 3 times with 150 μL/well of FACS stain buffer, after which wells were filled with 100 μL of FACS stain buffer and read for fluorescence at 488 nm using an Acumen eX3 reader. Data were plotted as raw fluorescence signal against the logarithm of the FN3 domain molar concentration and fitted to a sigmoidal dose-response curve with variable slope using GraphPad Prism 4 (GraphPad Software) to calculate EC₅₀ values.

[4] = molecular target: T1, human EGFR on cells (A431, NCI-H292, …); test: A431 cell competition with biotinylated EGF
Experimental: A431 cells were plated at 5,000/well in opaque black 96-well plates and allowed to attach overnight at 37° C., in a humidified 5% CO₂ atmosphere. […] Cells were washed 3 times with 150 μL/well of FACS stain buffer. Cells were incubated with 50 μL/well of streptavidin-phycoerythrin conjugate (Invitrogen) diluted 1:100 in FACS stain buffer for 20 minutes at room temperature. Cells were washed 3 times with 150 μL/well of FACS stain buffer, after which wells were filled with 100 μL of FACS stain buffer and read for fluorescence at 600 nm using an Acumen eX3 reader. Data were plotted as the raw fluorescence signal against the logarithm of FN3 domain molar concentration and fitted to a sigmoidal dose-response curve with variable slope using GraphPad Prism 4 (GraphPad Software) to calculate IC₅₀ values.

[5] = molecular target: T3, human c-Met on cells (NCI-H441, NCI-H292, U87-MG) (human, UniProt P08581 25-1390); test: cell-based or functional assay
[6] = molecular target: T1, human EGFR on cells (A431, NCI-H292, …); test: cell-based or functional assay; remark: listed apart in the source
[7] = molecular target: T4, recombinant c-Met extracellular domain (human, UniProt P08581 16-932); test: SPR (ProteOn) per Example 3
T4 construct: Construct used for SPR is not described further (may be the Fc chimera, as the protocol captures on anti-human Fc)
Description: (§1) Select EGFR/c-Met molecules were characterized for their affinity to both EGFR and c-Met, their ability to inhibit EGFR and c-Met autophosphorylation, and their effect on proliferation of HGF cells. Binding affinity of the bispecific EGFR/c-Met molecules to recombinant EGFR and/or c-Met extracellular domain was further by surface Plasmon resonance methods using a Proteon Instrument (BioRad) according to protocol described in Example 3.

[8] = molecular target: T2, recombinant human extracellular domain …; test: SPR (ProteOn) per Example 3
Description: as §1

[9] = molecular target: T1, human EGFR on cells (A431, NCI-H292, …); test: cell-based or functional assay; remark: listed apart in the source
[10] = molecular target: T3, human c-Met on cells (NCI-H441, …); test: cell-based or functional assay; remark: listed apart in the source

Binder | Phospho-EGFR IC50 (A431 cells) [1] [nM] | Kd [2] [nM] | EC50 [3] [nM] | IC50 [4] [nM] | pMet inhibition in H441 cells IC50 [5] [nM] | pEGFR inhibition in H292 cells IC50 [6] [nM] | Kd [7] [nM] | Kd [8] [nM] | also measured
B1 | > 2500 | 1.89 | 4 | 9.8 | – | – | – | – | NCI-H292 Growth IC50 [1]: 86 nM; NCI-H322 Growth IC50 [1]: 65 nM
B2 | 184 | 9.62 | 16 | 21 | – | – | – | – | –
B3 | 141 | 0.197 | 9.4 | 4.6 | – | – | – | – | NCI-H292 Growth IC50 [1]: 83 nM; NCI-H322 Growth IC50 [1]: 73 nM
B4 | – | – | 77 | – | – | – | – | – | –
B5 | 18 | 0.255 | 2.2 | 1.8 | – | – | – | – | NCI-H292 Growth IC50 [1]: 5.9 nM; NCI-H322 Growth IC50 [1]: 9.2 nM
B6 | 179 | 0.383 | – | 55 | – | – | – | – | NCI-H292 Growth IC50 [1]: 1150 nM; NCI-H322 Growth IC50 [1]: > 3070 nM
B7 | 170 | 7.78 | 12 | 9.8 | – | – | – | – | –
B8 | – | – | – | – | 179 | 13.6 | 6.2 | 1.1 | –
B9 | – | – | – | – | – | 4.2 | 2.6 | 0.2 | –
B10 | – | – | – | – | 53.8 | 5.1 | 4.3 | 1 | –
B11 | – | – | – | – | 835 | 24.7 | 22.1 | 1.6 | –
B12 | – | – | – | – | 24.2 | 16.6 | 1.7 | 1.3 | –
B13 | – | – | – | – | 53.3 | 367 | 5.1 | 16.7 | –
B14 | – | – | – | – | 29.9 | 812 | 9 | 16.9 | –
B15 | – | – | – | – | 126 | 814 | 25.5 | 15.3 | –
B16 | – | – | – | – | 26 | 432 | 2.1 | 17.3 | –
B17 | – | – | – | – | – | – | – | – | IC50 of inhibition of EGF-stimulated EGFR phosphorylation, NCI-H292 cells [9]: 1.6 nM; IC50 of inhibition of HGF-stimulated c-Met phosphorylation, NCI-H292 cells [10]: 0.5 nM
B18 | – | – | – | – | – | – | – | – | IC50 of inhibition of EGF-stimulated EGFR phosphorylation, NCI-H292 cells [9]: 0.9 nM; IC50 of inhibition of HGF-stimulated c-Met phosphorylation, NCI-H292 cells [10]: 0.4 nM
B19 | – | – | – | – | – | – | – | – | IC50 of inhibition of EGF-stimulated EGFR phosphorylation, NCI-H292 cells [9]: 1.4 nM; IC50 of inhibition of HGF-stimulated c-Met phosphorylation, NCI-H292 cells [10]: 0.4 nM
B20 | – | – | 84 | 121 | – | – | – | – | –
